Measurements taken from doi:10.1101/2021.07.05.451159.

Assays:
GST = assay: SEC
[1] = target: Gp22 (ALY06965.1), receptor-binding protein of C. difficile phage CDHS-1 (Clostridium difficile phage CDHS-1); assay: SEC

GST (natural protein) was tested. Which stoichiometry N (GST) did it give?
Its stoichiometry N is 2.

Which stoichiometry N [1] does the source give for “Gp22 (ALY06965.1), receptor-binding protein of C. difficile phage CDHS-1 (natural protein)” here?
The stoichiometry N was 2.
